The record followed here is US8501696 (dated 2013).

This assay addresses Hyper-IL-6 (designer cytokine consisting of covalently linked IL-6 and sIL-6R) (human, UniProt P08887 20-323; P05231 30-212). Kind of assay: SPR. (Surface plasmon resonance follows binding to a sensor surface in real time, without labels.)

Chain of Hyper-IL-6 (designer cytokine consisting of covalently linked IL-6 and sIL-6R) (P08887 20-323, chain 1 of 2): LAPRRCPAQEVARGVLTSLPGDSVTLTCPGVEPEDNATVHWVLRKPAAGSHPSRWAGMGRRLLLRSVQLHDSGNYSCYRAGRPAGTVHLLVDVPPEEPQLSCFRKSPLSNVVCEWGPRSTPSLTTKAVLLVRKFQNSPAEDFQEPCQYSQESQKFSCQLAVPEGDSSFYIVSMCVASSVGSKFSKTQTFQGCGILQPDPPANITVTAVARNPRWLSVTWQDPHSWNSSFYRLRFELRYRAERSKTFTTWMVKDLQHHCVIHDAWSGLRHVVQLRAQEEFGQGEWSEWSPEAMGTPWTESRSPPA
Chain of Hyper-IL-6 (designer cytokine consisting of covalently linked IL-6 and sIL-6R) (P05231 30-212, chain 2 of 2): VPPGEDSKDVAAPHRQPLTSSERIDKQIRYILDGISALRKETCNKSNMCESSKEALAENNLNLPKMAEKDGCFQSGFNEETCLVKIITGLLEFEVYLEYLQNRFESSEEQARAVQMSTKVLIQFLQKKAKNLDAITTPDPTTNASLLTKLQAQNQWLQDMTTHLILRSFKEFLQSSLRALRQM

B1: wild type sgp130Fc (Fc fusion)
chain: ELLDPCGYISPESPVVQLHSNFTAVCVLKEKCMDYFHVNANYIVWKTNHFTIPKEQYTIINRTASSVTFTDIASLNIQLTCNILTFGQLEQNVYGITIISGLPPEKPKNLSCIVNEGKKMRCEWDGGRETHLETNFTLKSEWATHKFADCKAKRDTPTSCTVDYSTVYFVNIEVWVEAENALGKVTSDHINFDPVYKVKPNPPHNLSVINSEELSSILKLTWTNPSIKSVIILKYNIQYRTKDASTWSQIPPEDTASTRSSFTVQDLKPFTEYVFRIRCMKEDGKGYWSDWSEEASGITYEDRPSKAPSFWYKIDPSHTQGYRTVQLVWKTLPPFEANGKILDYEVTLTRWKSHLQNYTVNATKLTVNLTNDRYLATLTVRNLVGKSDAAVLTIPACDFQATHPVMDLKAFPKDNMLWVEWTTPRESVKKYILEWCVLSDKAPCITDWQQEDGTVHRTYLRGNLAESKCYLITVTPVYADGPGSPESIKAYLKQAPPSKGPTVRTKKVGKNEAVLEWDQLPVDVQNGFIRNYTIFYRTIIGNETAVNVDSSHTEYTLSSLTSDTLYMVRMAAYTDEGGKDGPEFTFTTPKFAQGEIE
A word on the Kd: it is the constant that tells how readily two partners part at equilibrium. Low readings indicate tighter binding, high ones weaker binding. On to B1, for which the Kd came to 499 pM.
